Ends that are not written are not given here.
Assays:
[1] = target: T1, recombinant human β2-glycoprotein I (human, UniProt P02749 20-345); experiment: SPR (Biacore), chemically synthesized tPA F immobilized (395 RU)
T1 construct: Said to hold more cross-β structure conformation than plasma β2GPI; also called recombinant β2GPI; rec. β2GPI
T1 sequence (looked up): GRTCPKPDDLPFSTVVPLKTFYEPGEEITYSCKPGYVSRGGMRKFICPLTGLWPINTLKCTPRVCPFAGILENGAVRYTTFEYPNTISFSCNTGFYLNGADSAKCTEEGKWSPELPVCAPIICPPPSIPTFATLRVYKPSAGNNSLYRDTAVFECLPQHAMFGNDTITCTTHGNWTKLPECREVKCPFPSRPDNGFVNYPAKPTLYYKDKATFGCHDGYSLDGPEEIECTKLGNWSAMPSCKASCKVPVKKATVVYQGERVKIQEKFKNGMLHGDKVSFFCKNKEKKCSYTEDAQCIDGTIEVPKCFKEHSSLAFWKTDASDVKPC
Method: Then, the proteins were covalently coupled to the activated dextran surface. Remaining activated groups in each of the four flow channels were blocked by injection of 35 μl of 1 M ethanolamine hydrochloride pH 8.5. EDC, NHS and ethanolamine hydrochloride were obtained from Biacore. […] The running buffer during immobilization was 10 mM HEPES pH 7.4, 140 mM NaCl. Buffers were filtrated on a 0.22 μm filter (white GSWP, 47 mm, Millipore) and degassed at room temperature.

[2] = target: T1, recombinant human β2-glycoprotein I; experiment: SPR (Biacore), chemically synthesized HGFA F immobilized (190 RU)
Method: The running buffer during immobilization was 10 mM HEPES pH 7.4, 140 mM NaCl. Buffers were filtrated on a 0.22 μm filter (white GSWP, 47 mm, Millipore) and degassed at room temperature.
Regeneration buffer was running buffer supplemented with 1 M NaCl.

Binder | binding result [1] | binding result [2]
chemically synthesized tPA F domain (other, cysteine pairing not given here; also: C-terminal lysine acetylated or biotinylated, domain: F domain; Made from two peptides by native chemical ligation) SYQVICRDEKTQMIYQQHQSWLRPVLRSNRVEYCWCNSGRAQCHSVPVKSK | no binding (tested: 0-300 mM (so in the source)) | 
EKCFDETRYEYLEGGDRWARVRQGHVEQCECFGGRTWCEGT (other, UniProt Q04756 200-240, looked up, cysteine pairing not given here; also: acetylated lysine, position not given here, domain: F domain; Made from two peptides by native chemical ligation) [chemically synthesized HGFA F domain] |  | no binding (tested: 0-300 mM (so in the source))

Reference: patent publication US8114832 (UMC UTRECHT HOLDING B V, dated 2012)
